Reference: the supplement of paper PMC9732359
± gives the uncertainty stated by the source.

test: protein stability index of a GFP-peptide fusion (yeast GPS) (PSI 1-4); higher = more stable; sorted into four equal gates, so the index is relative within each strain; conditions: ubr1∆
In short: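 The protein stability index of a peptide was calculated by multiplying its read frequency in each gate by that gate's number and adding the products. The peptides were tiled 17-residue stretches of yeast proteins, fused downstream of GFP on a Cherry-expressing plasmid and carried in yeast as a pooled library. Mid-log cultures in leucine-free medium were sorted into four equal gates by GFP/Cherry ratio, and each gate's plasmids were PCR-amplified and Illumina-sequenced.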

Sequence	protein stability index
KPIQNGEIIDISAFTQF [ARP9]	2.98 ± 0.061
KPLKKGSADIGASVISL [SIR4]	3.06 ± 0.04
KPPISDSVFSFGPKKEN [YLR335W/NUP2]	2.94 ± 0.039
KPSKPFNVDDVLKFTFT [MED8]	2.74 ± 0.039
KPVKVALIFIFFAYFIG [YJL039C/NUP192]	1.4 ± 0.027
KPYDINVVLVTNDRLNR [DIS3]	3.08 ± 0.094
KPYYFSNNHKLSESDKK [RPN12]	1.22 ± 0.042
KQFFQMTPLLVNCLELL [PCI8]	1.23 ± 0.025
KQGRIKNATEELLRLAN [CSN12]	3.36 ± 0.22
KQIVHDSGRGAPLAKVV [RPL2A]	2.41 ± 0.17
KQLQQPKSSPLKKNNYN [SIR4]	3.07 ± 0.039
KQQGVGLPTDAYVAIEQ [RPN8]	3.19 ± 0.1
KREKRVFLKHSLSIKLA [RPN6]	2.81 ± 0.094
KRIKPNTEITQKSSKEN [ECM29]	3.14 ± 0.056
KRKCGHTNQLRPKKKLK [RPL40A]	2.994 ± 0.029
KRKSAQEPELSLDQGDA [SMC4]	3.39 ± 0.099
KRLGPKRANNIRKFFGL [RPS6A]	3.46 ± 0.045
KRNGDEVYTLVDSQGLP [ARP7]	3.21 ± 0.097
KRPNNKTLEKLESTIAE [IRR1]	3.31 ± 0.14
KRPYESSRLDAELKLAG [RPS9A]	2.96 ± 0.14
KSAYANTEKDYKMVQEQ [SMC2]	3.21 ± 0.049
KSDDDDHTVDEIDHVEY [SRB8]	2.91 ± 0.048
KSDEAKWKPVLSHIVYF [RPN5]	2.03 ± 0.047
KSEEVKAEDDTGEEEED [RPC37]	2.95 ± 0.19
KSGKRKPNIILDEDDTN [RPC31]	3.21 ± 0.046
KSKERSSQFVRLASEPG [YMR129W/POM152]	2.8 ± 0.074

Sequence	protein stability index
KSKREEEAKSVLPAATK [ARP9]	1.21 ± 0.054
KSLALLGYNFDGSAIED [SNF5]	2.86 ± 0.07
KSLPLLITVMEKSPDPT [YCS4]	1.97 ± 0.034
KSNVIDSMLFVFGFRAN [SMC4]	2.68 ± 0.059
KSSELELQKLVHDLNKY [SMC2]	3.4 ± 0.05
KSSIEKDPSPEILVLYN [SIN4]	2.82 ± 0.043
KSVLGDGKKHSVFYTIL [RPO31]	2.1 ± 0.087
KTAMAELALLNHWRQNK [BRR2]	1.88 ± 0.062
KTARGKAALERLKVFEG [RPL16A]	2.1 ± 0.12
KTFKNPKYESLKLEYYN [RPN5]	1.25 ± 0.058
KTFSRLDALTRHIKSKH [RPN4]	1.5 ± 0.1
KTKAMVPPINCIFNFLQ [SME1]	2.12 ± 0.036
KTKFQYKFLDQNSDAST [YIL149C/MLP2]	3.06 ± 0.08
KTKTSLLPTIKRTICKK [RPR2]	3.29 ± 0.13
KTKYILQRPTATDEESV [CSN12]	3.14 ± 0.2
KTLKRMIKESSTANPNI [POP1]	2.67 ± 0.054
KTQLGSTMTEPVKQSFI [GAL11]	2.85 ± 0.037
KTRKTYCKGKTCRKHTQ [RPL42A]	2.06 ± 0.043
KTRVGSVTAQVYKIALR [RPC82]	1.15 ± 0.12
KTSKRTKRWYKNAGLGF [RPS11A]	3.4 ± 0.085
KTSLSIKVENLNDTTEK [SMC2]	2.89 ± 0.05
KTVKELRQLLKERYTVE [RRI1]	3.06 ± 0.068
KTVPFQVNQLQRILEVL [SSN3]	2.08 ± 0.03
KVAPAPFGAKSTKSNKT [RPL8A]	2.94 ± 0.068
KVDGKVRTDTTYPAGFM [RPS4A]	3.15 ± 0.11
KVEIPLPNEAGRLEIFK [RPT4]	2.74 ± 0.21
